Measurements as given in patent US20240294593A1 (Genentech, published 2024).
Positions count from the first letter of the chain named. Names may count otherwise.

B1: H1_L1.25 (antibody, V domains shown)
VH: EVQLVESGGGLVQPGGSLRLSCAASGFTFSSFGMHWVRQAPGKGLEWVSYISSGSSIIYYADSVKGRFTISRDNAKNSLYLQMNSLRAEDTAVYYCARGGRLVWSPDYWGQGTLVTVSS
VL: DIVMTQSPDSLAVSLGERATINCKSSQSLLNSGEQKNYLTWYQQKPGQPPKLLIYWASTRESGVPDRFTGSGSGTDFTLTISSLQAEDVAVYYCQNDYSYPFTFGSGTKLEIKR
notes: also called VL-N34E; Kabat 28
B2: H1_L1.40 (antibody, V domains shown)
VH: B1 VH
VL: B1 VL with E34N, K36E
notes: also called VL-K36E; Kabat 30
B3: H1_L1.35 (antibody, V domains shown)
VH: B1 VH
VL: B1 VL with E34N, Q35K
notes: also called VL-Q35K; Kabat 29
B4: H1_L1.45 (antibody, human IgG1, kappa, V domains shown)
VH: B1 VH
VL: B1 VL with E34N, K36Y
notes: also called VL-K36Y; Kabat 30
B5: H1_L1.48 (antibody, V domains shown)
VH: B1 VH
VL: B1 VL with E34N, N37H
notes: also called VL-N37H; Kabat 31
B6: H1_L1.36 (antibody, V domains shown)
VH: B1 VH
VL: B1 VL with E34N, Q35A
notes: also called VL-Q35A; Kabat 29
B7: H1_L1.46 (antibody, V domains shown)
VH: B1 VH
VL: B1 VL with E34N, K36I
notes: also called VL-K36I; Kabat 30
B8: H1_L1.32 (antibody, V domains shown)
VH: B1 VH
VL: B1 VL with E34N, Q35E
notes: also called VL-Q35E; Kabat 29
B9: H1_L1.50 (antibody, V domains shown)
VH: B1 VH
VL: B1 VL with E34N, N37S
notes: also called VL-N37S; Kabat 31
B10: H1_L1.44 (antibody, V domains shown)
VH: B1 VH
VL: B1 VL with E34N, K36G
notes: also called VL-K36G; Kabat 30
B11: H1_L1.41 (antibody, V domains shown)
VH: B1 VH
VL: B1 VL with E34N, K36H
notes: also called VL-K36H; Kabat 30
B12: H1_L1.28 (antibody, V domains shown)
VH: B1 VH
VL: B1 VL with E34L
notes: also called VL-N34L; Kabat 28
B13: H1_L1.26 (antibody, V domains shown)
VH: B1 VH
VL: B1 VL with E34S
notes: also called VL-N34S; Kabat 28
B14: H1_L1.39 (antibody, V domains shown)
VH: B1 VH
VL: B1 VL with E34N, K36R
notes: also called VL-K36R; Kabat 30
B15: H1_L1.27 (antibody, V domains shown)
VH: B1 VH
VL: B1 VL with E34R
notes: also called VL-N34R; Kabat 28
B16: H1_L1.38 (antibody, V domains shown)
VH: B1 VH
VL: B1 VL with E34N, Q35I
notes: also called VL-Q35I; Kabat 29
B17: H1_L1.37 (antibody, V domains shown)
VH: B1 VH
VL: B1 VL with E34N, Q35F
notes: also called VL-Q35F; Kabat 29
B18: H1_L1.47 (antibody, V domains shown)
VH: B1 VH
VL: B1 VL with E34N, N37D
notes: also called VL-N37D; Kabat 31
B19: H1_L1.33 (antibody, V domains shown)
VH: B1 VH
VL: B1 VL with E34N, Q35H
notes: also called VL-Q35H; Kabat 29
B20: H1_L1.30 (antibody, V domains shown)
VH: B1 VH
VL: B1 VL with E34G
notes: also called VL-N34G; Kabat 28
B21: H1_L1.49 (antibody, V domains shown)
VH: B1 VH
VL: B1 VL with E34N, N37E
notes: also called VL-N37E; Kabat 31
B22: H1_L1.43 (antibody, V domains shown)
VH: B1 VH
VL: B1 VL with E34N, K36A
notes: also called VL-K36A; Kabat 30
B23: H1_L1.29 (antibody, V domains shown)
VH: B1 VH
VL: B1 VL with E34T
notes: also called VL-N34T; Kabat 28
B24: H1_L1.34 (antibody, V domains shown)
VH: B1 VH
VL: B1 VL with E34N, Q35N
notes: also called VL-Q35N; Kabat 29
B25: H1_L1.42 (antibody, V domains shown)
VH: B1 VH
VL: B1 VL with E34N, K36D
notes: also called VL-K36D; Kabat 30
B26: H1_L1.71 (antibody, V domains shown)
VH: B1 VH
VL: B1 VL with E34N, W56Q
notes: also called VL-W56Q; Kabat 50
B27: H1_L1.73 (antibody, V domains shown)
VH: B1 VH
VL: B1 VL with E34N, W56D
notes: also called VL-W56D; Kabat 50
B28: H1_L1.76 (antibody, V domains shown)
VH: B1 VH
VL: B1 VL with E34N, T59S
notes: also called VL-T59S; Kabat 53
B29: H1_L1.75 (antibody, V domains shown)
VH: B1 VH
VL: B1 VL with E34N, T59V
notes: also called VL-T59V; Kabat 53
B30: H1_L1.74 (antibody, V domains shown)
VH: B1 VH
VL: B1 VL with E34N, W56R
notes: also called VL-W56R; Kabat 50
B31: H1_L1.72 (antibody, V domains shown)
VH: B1 VH
VL: B1 VL with E34N, W56S
notes: also called VL-W56S; Kabat 50
B32: H1_L1.69 (antibody, V domains shown)
VH: B1 VH
VL: B1 VL with E34N, W56I
notes: also called VL-W56I; Kabat 50
B33: H1_L1.68 (antibody, V domains shown)
VH: B1 VH
VL: B1 VL with E34N, W56Y
notes: also called VL-W56Y; Kabat 50
B34: H1_L1.67 (antibody, V domains shown)
VH: B1 VH
VL: B1 VL with E34N, W56L
notes: also called VL-W56L; Kabat 50
B35: H1_L1.77 (antibody, V domains shown)
VH: B1 VH
VL: B1 VL with E34N, T59A
notes: also called VL-T59A; Kabat 53
B36: H1_L1.65 (antibody, V domains shown)
VH: B1 VH
VL: B1 VL with E34N, T40A
notes: also called VL-T40A; Kabat 34
B37: H1_L1.66 (antibody, V domains shown)
VH: B1 VH
VL: B1 VL with E34N, W56F
notes: also called VL-W56F; Kabat 50
B38: H1_L1.70 (antibody, V domains shown)
VH: B1 VH
VL: B1 VL with E34N, W56H
notes: also called VL-W56H; Kabat 50

Each binder was assayed against T1, human PD-1-His (human, UniProt Q15116 25-167, limits assumed) (assay: Octet).
T1 construct: Antigen of the Octet assays; not shown: His tag
T1 sequence (Q15116 25-167 limits assumed): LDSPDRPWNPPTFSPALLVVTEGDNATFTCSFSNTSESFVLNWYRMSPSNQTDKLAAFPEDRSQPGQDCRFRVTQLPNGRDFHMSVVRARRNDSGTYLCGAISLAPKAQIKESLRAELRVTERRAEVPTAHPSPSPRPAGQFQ

Point of comparison: B10, Kd 19.9 nM. Against it:
- B1 — 7.6-fold higher, 152 nM
- B2 — 1.9-fold higher, 38.1 nM
- B3 — 2.9-fold higher, 57.6 nM
- B4 — 2.3-fold lower, 8.6 nM
- B5 — 4-fold higher, 80.1 nM
- B6 — 3.1-fold higher, 60.9 nM
- B7 — within 1.5-fold, 26.4 nM
- B8 — 1.8-fold higher, 35 nM
- B9 — 2.1-fold higher, 42.1 nM
- B11 — 2-fold higher, 39.7 nM
- B12 — 20-fold higher, 403 nM
- B13 — 8.9-fold higher, 177 nM
- B14 — 2.7-fold higher, 54.5 nM
- B15 — 2.6-fold higher, 51.5 nM
- B16 — 1.5-fold higher, 30.5 nM
- B17 — within 1.5-fold, 29 nM
- B18 — within 1.5-fold, 23.8 nM
- B19 — 2.1-fold higher, 42.7 nM
- B20 — 3.1-fold higher, 61.9 nM
- B21 — 3.1-fold higher, 61.1 nM
- B22 — 2-fold higher, 39.8 nM
- B23 — 15-fold higher, 305 nM
- B24 — 2.1-fold higher, 42.1 nM
- B25 — 1.8-fold higher, 36.5 nM

Point of comparison: B15, koff 0.0117 s⁻¹. Against it:
- B1 — within 1.5-fold, 0.0123 s⁻¹
- B2 — 2.6-fold lower, 0.00455 s⁻¹
- B3 — 1.8-fold lower, 0.00638 s⁻¹
- B4 — 8.7-fold lower, 0.00135 s⁻¹
- B5 — within 1.5-fold, 0.00785 s⁻¹
- B6 — 1.7-fold lower, 0.00678 s⁻¹
- B7 — 3.6-fold lower, 0.00324 s⁻¹
- B8 — 2.5-fold lower, 0.00476 s⁻¹
- B9 — 2.9-fold lower, 0.00409 s⁻¹
- B10 — 4-fold lower, 0.00291 s⁻¹
- B11 — 2.3-fold lower, 0.00508 s⁻¹
- B12 — 4.6-fold higher, 0.0539 s⁻¹
- B13 — 2-fold higher, 0.0229 s⁻¹
- B14 — 2-fold lower, 0.00596 s⁻¹
- B16 — 2.7-fold lower, 0.00439 s⁻¹
- B17 — 3.2-fold lower, 0.00364 s⁻¹
- B18 — 3.3-fold lower, 0.00353 s⁻¹
- B19 — 2.1-fold lower, 0.00566 s⁻¹
- B20 — within 1.5-fold, 0.00901 s⁻¹
- B21 — 1.7-fold lower, 0.00697 s⁻¹
- B22 — 2.1-fold lower, 0.00546 s⁻¹
- B23 — 3.5-fold higher, 0.0405 s⁻¹
- B24 — 2.6-fold lower, 0.00451 s⁻¹
- B25 — 2.4-fold lower, 0.0049 s⁻¹

Point of comparison: B4, kon 157000 M⁻¹ s⁻¹. Against it:
- B1 — 1.9-fold lower, 80900 M⁻¹ s⁻¹
- B2 — within 1.5-fold, 120000 M⁻¹ s⁻¹
- B3 — within 1.5-fold, 111000 M⁻¹ s⁻¹
- B5 — 1.6-fold lower, 98000 M⁻¹ s⁻¹
- B6 — within 1.5-fold, 111000 M⁻¹ s⁻¹
- B7 — within 1.5-fold, 123000 M⁻¹ s⁻¹
- B8 — within 1.5-fold, 136000 M⁻¹ s⁻¹
- B9 — 1.6-fold lower, 97100 M⁻¹ s⁻¹
- B10 — within 1.5-fold, 146000 M⁻¹ s⁻¹
- B11 — within 1.5-fold, 128000 M⁻¹ s⁻¹
- B12 — within 1.5-fold, 134000 M⁻¹ s⁻¹
- B13 — within 1.5-fold, 130000 M⁻¹ s⁻¹
- B14 — within 1.5-fold, 109000 M⁻¹ s⁻¹
- B15 — within 1.5-fold, 227000 M⁻¹ s⁻¹
- B16 — within 1.5-fold, 144000 M⁻¹ s⁻¹
- B17 — within 1.5-fold, 126000 M⁻¹ s⁻¹
- B18 — within 1.5-fold, 149000 M⁻¹ s⁻¹
- B19 — within 1.5-fold, 133000 M⁻¹ s⁻¹
- B20 — within 1.5-fold, 146000 M⁻¹ s⁻¹
- B21 — within 1.5-fold, 114000 M⁻¹ s⁻¹
- B22 — within 1.5-fold, 137000 M⁻¹ s⁻¹
- B23 — within 1.5-fold, 133000 M⁻¹ s⁻¹
- B24 — within 1.5-fold, 107000 M⁻¹ s⁻¹
- B25 — within 1.5-fold, 134000 M⁻¹ s⁻¹

The binders below were run against T1, human PD-1-His (assay: Octet [D00120 Figure 65H]).
Description: In particular, anti-human IgG-Fc (AHC) biosensors were used to capture the test articles and dipped into multiple concentrations of PD-1.

Point of comparison: B34, Kd 41.6 nM. Against it:
- B26 — within 1.5-fold, 47.1 nM
- B27 — within 1.5-fold, 51.6 nM
- B28 — within 1.5-fold, 55 nM
- B29 — within 1.5-fold, 45.3 nM
- B30 — 6.4-fold higher, 265 nM
- B31 — within 1.5-fold, 60.3 nM
- B32 — 1.6-fold lower, 25.9 nM
- B33 — 4.3-fold higher, 178 nM
- B35 — within 1.5-fold, 50.3 nM
- B36 — 2.4-fold higher, 98 nM
- B37 — within 1.5-fold, 35.3 nM
- B38 — within 1.5-fold, 30.9 nM

Point of comparison: B29, koff 0.00496 s⁻¹. Against it:
- B26 — within 1.5-fold, 0.0043 s⁻¹
- B27 — within 1.5-fold, 0.00455 s⁻¹
- B28 — within 1.5-fold, 0.00512 s⁻¹
- B30 — 4.9-fold higher, 0.0244 s⁻¹
- B31 — within 1.5-fold, 0.00348 s⁻¹
- B32 — 2-fold lower, 0.00244 s⁻¹
- B33 — 3.3-fold higher, 0.0166 s⁻¹
- B34 — within 1.5-fold, 0.00418 s⁻¹
- B35 — within 1.5-fold, 0.00535 s⁻¹
- B36 — 1.9-fold higher, 0.00949 s⁻¹
- B37 — within 1.5-fold, 0.00339 s⁻¹
- B38 — 1.8-fold lower, 0.00281 s⁻¹

Point of comparison: B32, kon 94400 M⁻¹ s⁻¹. Against it:
- B26 — within 1.5-fold, 91400 M⁻¹ s⁻¹
- B27 — within 1.5-fold, 88100 M⁻¹ s⁻¹
- B28 — within 1.5-fold, 93100 M⁻¹ s⁻¹
- B29 — within 1.5-fold, 110000 M⁻¹ s⁻¹
- B30 — within 1.5-fold, 92300 M⁻¹ s⁻¹
- B31 — 1.6-fold lower, 57700 M⁻¹ s⁻¹
- B33 — within 1.5-fold, 92900 M⁻¹ s⁻¹
- B34 — within 1.5-fold, 100000 M⁻¹ s⁻¹
- B35 — within 1.5-fold, 106000 M⁻¹ s⁻¹
- B36 — within 1.5-fold, 96800 M⁻¹ s⁻¹
- B37 — within 1.5-fold, 96200 M⁻¹ s⁻¹
- B38 — within 1.5-fold, 90700 M⁻¹ s⁻¹
